What was measured:
RAR α = target: T1, RAR α (Homo sapiens, UniProt P10276); assay: Mammalian two-hybrid assay with VP16 full length receptor: RARα; type: cell-based; settings: 1 μM 9-cis-retinoic acid
T1 construct: plus VP16 fused to the indicated full length receptors; expressed in transfected cells; host or cells: CV-1
T1 sequence (P10276 1-462): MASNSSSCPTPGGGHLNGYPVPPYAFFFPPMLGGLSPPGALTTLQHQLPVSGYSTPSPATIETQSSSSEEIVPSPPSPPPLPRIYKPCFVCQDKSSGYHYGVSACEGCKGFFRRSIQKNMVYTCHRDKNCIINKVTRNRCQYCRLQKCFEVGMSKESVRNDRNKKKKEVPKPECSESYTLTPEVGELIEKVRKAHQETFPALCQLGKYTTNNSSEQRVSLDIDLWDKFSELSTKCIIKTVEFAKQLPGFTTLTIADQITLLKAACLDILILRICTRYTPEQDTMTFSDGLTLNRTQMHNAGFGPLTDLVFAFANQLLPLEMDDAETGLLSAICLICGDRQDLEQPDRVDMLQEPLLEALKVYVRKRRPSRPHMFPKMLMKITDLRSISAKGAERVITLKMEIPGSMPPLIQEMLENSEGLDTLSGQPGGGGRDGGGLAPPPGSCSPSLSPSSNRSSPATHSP
Description: (§1) FIG. 6C1-3 illustrate the association of STAMP with assorted steroid/nuclear receptors, including glucocorticoid receptors (GRs), progesterone receptors (PRs), androgen receptors (ARs), estrogen receptors (ER α or β), PPARγ2 receptors, thyroid receptor beta (TR), and retinoid (α) receptors (RAR α or RXR α). Triplicate samples of CV-1 cells were transfected (as described for FIG. 6B) with GAL, or GAL fused to TIF2.4 or STAMP834C, plus VP16 fused to the indicated full length receptors and incubated with the appropriate steroid (1 μM Dex, 20 nM R5020, 1 nM R1881, 0.1 μM triiodothyronine, or 1 μM estradiol, roziglitazone, or 9-cis-retinoic acid). The average relative luciferase activities of 2-3 experiments±S.E.M. were then plotted. FIG. 6C1 illustrates the effects of STAMP association upon GR, PR and AR induced expression. FIG. 6C2 illustrates the effects of STAMP association upon ERα, ERβ and PPARγ2 induced expression. FIG. 6C3 illustrates the effects of STAMP association upon TR, RARα and RXRα induced expression.
(§2) These assays were conducted as described (He et al., 2002). […]

androgen receptors (ARs) = target: T2, androgen receptors (ARs) (Homo sapiens, UniProt P10275); assay: Mammalian two-hybrid assay with VP16 full length receptor: AR; type: cell-based; settings: 1 nM R1881
T2 construct: plus VP16 fused to the indicated full length receptors; expressed in transfected cells; host or cells: CV-1
T2 sequence (P10275 1-920): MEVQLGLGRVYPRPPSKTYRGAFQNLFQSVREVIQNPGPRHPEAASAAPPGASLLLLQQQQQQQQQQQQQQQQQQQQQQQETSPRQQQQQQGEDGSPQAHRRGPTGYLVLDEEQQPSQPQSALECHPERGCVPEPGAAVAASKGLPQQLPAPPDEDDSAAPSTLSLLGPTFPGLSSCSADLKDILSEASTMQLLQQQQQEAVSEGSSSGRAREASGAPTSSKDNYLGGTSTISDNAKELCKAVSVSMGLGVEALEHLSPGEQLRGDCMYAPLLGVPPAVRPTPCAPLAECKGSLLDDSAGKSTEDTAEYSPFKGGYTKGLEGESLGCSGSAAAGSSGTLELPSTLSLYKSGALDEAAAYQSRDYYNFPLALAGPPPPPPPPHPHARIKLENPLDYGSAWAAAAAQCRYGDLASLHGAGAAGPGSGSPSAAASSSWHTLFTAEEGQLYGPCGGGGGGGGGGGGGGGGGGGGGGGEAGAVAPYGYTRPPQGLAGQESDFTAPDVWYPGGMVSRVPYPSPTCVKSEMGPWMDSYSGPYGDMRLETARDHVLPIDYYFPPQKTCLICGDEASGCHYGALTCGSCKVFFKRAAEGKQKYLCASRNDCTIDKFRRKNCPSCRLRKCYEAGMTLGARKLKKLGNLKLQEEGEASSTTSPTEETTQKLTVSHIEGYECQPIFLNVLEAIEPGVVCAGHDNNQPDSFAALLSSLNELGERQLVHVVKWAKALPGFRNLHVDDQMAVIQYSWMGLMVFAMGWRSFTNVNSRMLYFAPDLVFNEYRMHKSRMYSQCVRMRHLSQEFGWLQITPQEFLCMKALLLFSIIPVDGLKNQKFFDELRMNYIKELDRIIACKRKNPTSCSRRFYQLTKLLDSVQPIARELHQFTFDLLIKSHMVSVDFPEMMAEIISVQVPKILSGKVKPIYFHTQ
T2 sequence (Q6EMB2 838-1281 F1267S partner limits assumed): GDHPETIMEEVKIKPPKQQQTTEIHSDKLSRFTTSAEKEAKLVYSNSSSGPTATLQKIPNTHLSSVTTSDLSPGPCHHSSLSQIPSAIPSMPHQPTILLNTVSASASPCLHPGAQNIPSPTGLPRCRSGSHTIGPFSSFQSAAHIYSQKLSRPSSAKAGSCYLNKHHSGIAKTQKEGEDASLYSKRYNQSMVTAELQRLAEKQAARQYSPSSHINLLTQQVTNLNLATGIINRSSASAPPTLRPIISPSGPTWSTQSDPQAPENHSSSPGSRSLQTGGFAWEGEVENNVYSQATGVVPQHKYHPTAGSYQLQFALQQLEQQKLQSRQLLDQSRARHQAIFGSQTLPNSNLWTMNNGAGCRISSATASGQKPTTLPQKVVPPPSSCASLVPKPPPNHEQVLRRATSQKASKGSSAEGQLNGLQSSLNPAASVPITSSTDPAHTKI
Description: as §1, §2

B1: STAMP834C: STAMP fragment amino acids 834-1277, receptor interaction domain (RID) (protein)
chain: T2 sequence (Q6EMB2 838-1281 F1267S partner limits assumed)
- interaction with retinoid (α) receptor (RAR α): lack of interaction
- interaction with agonist-bound, full length AR (androgen receptors (ARs)): interacted

— patent publication US7867500B2, “Cofactor that modulates steroid receptor activities” (The United States of America as represented by the …, priority 2004, dated 2011)
